The text below walks through data of US20170368136A1.

One assay addresses CaMKIV. The assay is described as follows: cell-based or functional assay.
A further assay has as its target CaMKII. Description: cell-based or functional assay.

CaMKII, sequence (chain, from a related filing, as listed by the source): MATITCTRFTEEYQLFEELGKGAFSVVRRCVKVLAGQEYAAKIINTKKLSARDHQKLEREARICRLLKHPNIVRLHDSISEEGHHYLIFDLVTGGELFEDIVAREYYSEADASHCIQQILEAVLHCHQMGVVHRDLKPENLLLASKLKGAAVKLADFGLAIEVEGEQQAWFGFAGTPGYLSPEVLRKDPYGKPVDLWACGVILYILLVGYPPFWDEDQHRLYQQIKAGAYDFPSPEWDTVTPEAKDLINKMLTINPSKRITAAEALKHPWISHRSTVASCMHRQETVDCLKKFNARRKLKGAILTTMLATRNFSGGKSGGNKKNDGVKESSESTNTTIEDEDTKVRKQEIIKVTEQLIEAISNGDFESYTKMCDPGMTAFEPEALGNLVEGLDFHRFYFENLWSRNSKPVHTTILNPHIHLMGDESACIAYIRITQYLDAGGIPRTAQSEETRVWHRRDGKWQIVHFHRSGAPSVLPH

Regarding YGRKKRRQRRRKRPPKLGQIGRSKRVVIEDDR (modifications not checked) [tatCN21], the reduction of kinase activity in a kinase panel, 5 µM tatCN21 with CaMKIV was determined as 35%.
KRPPKLGQIGRSKRVVIEDDR [CN21a] came in with an IC50, phosphorylation of syntide 2 by CaMKII in the assay with CaMKII of 100 nM.
